Experimental data published in patent publication US20220017612A1.

Experiments:
[1] = target: human-chicken LAP-TGFβ1 chimera #5 on HT1080 cells (human/chicken chimera); test: flow cytometry, transduced HT1080 cells
[2] = target: human-chicken LAP-TGFβ1 chimera #2.1 on HT1080 cells (human/chicken chimera) (UniProt P01137); test: flow cytometry, transduced HT1080 cells
[3] = target: human-chicken LAP-TGFβ1 chimera #3 on HT1080 cells (human/chicken chimera) (UniProt P01137); test: flow cytometry, transduced HT1080 cells
[4] = target: human-chicken LAP-TGFβ1 chimera #7 on HT1080 cells (human/chicken chimera) (UniProt P01137); test: flow cytometry, transduced HT1080 cells
[5] = target: human-chicken LAP-TGFβ1 chimera #1 on HT1080 cells (human/chicken chimera); test: flow cytometry, transduced HT1080 cells
[6] = target: chicken LAP-TGFβ1 on HT1080 cells (chicken) (UniProt P09531); test: flow cytometry, transduced HT1080 cells
[7] = target: human-chicken LAP-TGFβ1 chimera #1.3 on HT1080 cells (human/chicken chimera) (UniProt P01137); test: flow cytometry, transduced HT1080 cells
[8] = target: human-chicken LAP-TGFβ1 chimera #6 on HT1080 cells (human/chicken chimera) (UniProt P01137); test: flow cytometry, transduced HT1080 cells
[9] = target: human-chicken LAP-TGFβ1 chimera #4 on HT1080 cells (human/chicken chimera) (UniProt P01137); test: flow cytometry, transduced HT1080 cells
[10] = target: human-chicken LAP-TGFβ1 chimera #2.2 on HT1080 cells (human/chicken chimera) (UniProt P01137); test: flow cytometry, transduced HT1080 cells
[11] = target: human-chicken LAP-TGFβ1 chimera #2 on HT1080 cells (human/chicken chimera); test: flow cytometry, transduced HT1080 cells
[12] = target: human LAP-TGFβ1 overexpressed on cells (human) (UniProt P01137); test: flow cytometry, transduced HT1080 cells
[13] = target: human-chicken LAP-TGFβ1 chimera #1.2 on HT1080 cells (human/chicken chimera) (UniProt P01137); test: flow cytometry, transduced HT1080 cells
[14] = target: LAP-TGFβ1 on U937 cells (Homo sapiens) (UniProt P01137); test: flow cytometry dot plot against GARP, U937 cells, Alexa 647 antibody at 10 ug/ml
Sequence of LAP-TGFβ1 on U937 cells (Homo sapiens) (P01137 30-390 limits assumed): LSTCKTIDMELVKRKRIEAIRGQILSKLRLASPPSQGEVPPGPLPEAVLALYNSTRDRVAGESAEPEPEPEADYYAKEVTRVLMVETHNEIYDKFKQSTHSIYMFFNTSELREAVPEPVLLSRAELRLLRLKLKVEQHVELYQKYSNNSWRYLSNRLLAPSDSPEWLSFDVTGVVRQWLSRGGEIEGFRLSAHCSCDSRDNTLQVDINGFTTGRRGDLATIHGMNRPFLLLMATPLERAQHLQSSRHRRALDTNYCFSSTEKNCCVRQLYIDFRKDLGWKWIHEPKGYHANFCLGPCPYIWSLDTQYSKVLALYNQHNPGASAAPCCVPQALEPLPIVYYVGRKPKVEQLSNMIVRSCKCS

Sequence of human-chicken LAP-TGFβ1 chimera #7 on HT1080 cells (human/chicken chimera) (P01137 other isoform, or with tags, fused parts or gaps mutant): as the sequence (P01137 30-390 limits assumed) above, with A331T, E333D, V338I, K344N, P345V, K346R, I354V, S357A counted along it
Sequence of human-chicken LAP-TGFβ1 chimera #4 on HT1080 cells (human/chicken chimera) (P01137 other isoform, or with tags, fused parts or gaps mutant): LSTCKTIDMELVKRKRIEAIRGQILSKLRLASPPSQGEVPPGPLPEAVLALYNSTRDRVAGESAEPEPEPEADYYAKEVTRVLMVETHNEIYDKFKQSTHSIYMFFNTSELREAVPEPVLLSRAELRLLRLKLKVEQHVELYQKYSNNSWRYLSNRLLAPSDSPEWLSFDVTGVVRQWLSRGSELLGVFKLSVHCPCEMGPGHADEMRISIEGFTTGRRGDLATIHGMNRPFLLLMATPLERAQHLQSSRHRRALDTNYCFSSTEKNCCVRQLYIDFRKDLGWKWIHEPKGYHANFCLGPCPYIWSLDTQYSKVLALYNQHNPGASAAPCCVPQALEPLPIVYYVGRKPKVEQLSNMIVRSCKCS
Sequence of human-chicken LAP-TGFβ1 chimera #1 on HT1080 cells (human/chicken chimera) (chain, as listed by the source mutant limits assumed): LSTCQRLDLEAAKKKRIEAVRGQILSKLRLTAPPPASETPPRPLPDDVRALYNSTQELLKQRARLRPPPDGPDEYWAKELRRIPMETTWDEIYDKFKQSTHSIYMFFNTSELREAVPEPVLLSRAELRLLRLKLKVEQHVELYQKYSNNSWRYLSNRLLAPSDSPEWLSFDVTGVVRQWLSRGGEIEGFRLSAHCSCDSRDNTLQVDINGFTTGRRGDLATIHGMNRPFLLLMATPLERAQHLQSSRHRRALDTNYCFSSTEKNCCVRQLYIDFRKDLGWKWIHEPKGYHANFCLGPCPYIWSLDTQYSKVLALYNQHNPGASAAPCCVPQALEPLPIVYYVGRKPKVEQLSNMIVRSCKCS
Sequence of human-chicken LAP-TGFβ1 chimera #6 on HT1080 cells (human/chicken chimera) (P01137 other isoform, or with tags, fused parts or gaps mutant): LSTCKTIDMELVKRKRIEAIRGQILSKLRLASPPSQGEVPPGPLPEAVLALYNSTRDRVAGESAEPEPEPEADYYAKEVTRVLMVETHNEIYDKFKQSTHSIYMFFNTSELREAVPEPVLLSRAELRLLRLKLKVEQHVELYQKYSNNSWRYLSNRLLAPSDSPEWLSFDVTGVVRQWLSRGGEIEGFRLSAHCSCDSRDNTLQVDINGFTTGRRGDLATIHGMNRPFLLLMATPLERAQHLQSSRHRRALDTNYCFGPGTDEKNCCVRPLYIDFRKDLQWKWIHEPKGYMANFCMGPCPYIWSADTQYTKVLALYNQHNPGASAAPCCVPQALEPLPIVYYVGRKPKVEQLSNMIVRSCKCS
Sequence of human-chicken LAP-TGFβ1 chimera #1.2 on HT1080 cells (human/chicken chimera) (P01137 other isoform, or with tags, fused parts or gaps mutant): as the sequence (P01137 30-390 limits assumed) above, with A31T, S32A, S35P, Q36A, G37S, V39T, G42R, E46D, A47D, L49R counted along it
Sequence of human-chicken LAP-TGFβ1 chimera #2.1 on HT1080 cells (human/chicken chimera) (P01137 other isoform, or with tags, fused parts or gaps mutant): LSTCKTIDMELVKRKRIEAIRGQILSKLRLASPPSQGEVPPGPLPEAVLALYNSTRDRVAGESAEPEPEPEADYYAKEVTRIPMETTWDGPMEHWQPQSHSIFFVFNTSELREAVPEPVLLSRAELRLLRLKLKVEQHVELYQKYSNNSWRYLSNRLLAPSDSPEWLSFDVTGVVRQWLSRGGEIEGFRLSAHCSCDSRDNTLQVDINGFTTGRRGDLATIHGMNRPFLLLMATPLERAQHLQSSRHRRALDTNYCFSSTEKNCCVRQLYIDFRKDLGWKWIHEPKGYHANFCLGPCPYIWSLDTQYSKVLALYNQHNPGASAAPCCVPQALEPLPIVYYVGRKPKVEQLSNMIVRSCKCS
Sequence of human-chicken LAP-TGFβ1 chimera #2 on HT1080 cells (human/chicken chimera) (chain, as listed by the source mutant limits assumed): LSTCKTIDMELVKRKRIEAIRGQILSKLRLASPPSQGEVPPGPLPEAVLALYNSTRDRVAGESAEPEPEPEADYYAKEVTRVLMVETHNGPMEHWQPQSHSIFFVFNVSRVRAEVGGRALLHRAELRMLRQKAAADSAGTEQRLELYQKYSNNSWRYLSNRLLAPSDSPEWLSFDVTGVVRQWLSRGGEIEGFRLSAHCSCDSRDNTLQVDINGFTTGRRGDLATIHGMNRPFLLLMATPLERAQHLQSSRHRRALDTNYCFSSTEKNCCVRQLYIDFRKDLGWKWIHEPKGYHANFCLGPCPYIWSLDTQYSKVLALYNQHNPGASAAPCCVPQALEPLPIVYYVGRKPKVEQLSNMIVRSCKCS
Sequence of human-chicken LAP-TGFβ1 chimera #5 on HT1080 cells (human/chicken chimera) (chain, as listed by the source mutant limits assumed): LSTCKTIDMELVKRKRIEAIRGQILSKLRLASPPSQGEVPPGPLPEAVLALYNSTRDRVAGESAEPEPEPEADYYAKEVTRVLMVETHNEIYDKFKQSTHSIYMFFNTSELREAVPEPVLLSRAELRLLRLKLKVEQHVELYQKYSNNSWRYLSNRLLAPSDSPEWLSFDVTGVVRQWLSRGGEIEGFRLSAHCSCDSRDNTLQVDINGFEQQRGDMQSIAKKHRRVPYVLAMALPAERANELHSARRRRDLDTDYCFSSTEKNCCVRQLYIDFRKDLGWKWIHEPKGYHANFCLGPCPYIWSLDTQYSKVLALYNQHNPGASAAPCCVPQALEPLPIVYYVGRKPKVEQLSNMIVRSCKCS
Sequence of human-chicken LAP-TGFβ1 chimera #3 on HT1080 cells (human/chicken chimera) (P01137 other isoform, or with tags, fused parts or gaps mutant): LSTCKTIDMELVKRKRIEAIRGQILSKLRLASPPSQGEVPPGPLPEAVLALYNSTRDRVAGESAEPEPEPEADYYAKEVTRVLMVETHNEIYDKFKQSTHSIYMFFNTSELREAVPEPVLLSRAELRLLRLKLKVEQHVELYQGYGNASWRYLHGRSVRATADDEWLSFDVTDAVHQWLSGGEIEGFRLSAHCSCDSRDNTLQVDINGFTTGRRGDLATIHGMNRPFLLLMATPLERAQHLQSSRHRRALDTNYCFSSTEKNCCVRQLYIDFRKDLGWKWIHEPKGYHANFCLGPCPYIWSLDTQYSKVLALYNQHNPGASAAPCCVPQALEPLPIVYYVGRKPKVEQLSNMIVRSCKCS
Sequence of human-chicken LAP-TGFβ1 chimera #1.3 on HT1080 cells (human/chicken chimera) (P01137 other isoform, or with tags, fused parts or gaps mutant): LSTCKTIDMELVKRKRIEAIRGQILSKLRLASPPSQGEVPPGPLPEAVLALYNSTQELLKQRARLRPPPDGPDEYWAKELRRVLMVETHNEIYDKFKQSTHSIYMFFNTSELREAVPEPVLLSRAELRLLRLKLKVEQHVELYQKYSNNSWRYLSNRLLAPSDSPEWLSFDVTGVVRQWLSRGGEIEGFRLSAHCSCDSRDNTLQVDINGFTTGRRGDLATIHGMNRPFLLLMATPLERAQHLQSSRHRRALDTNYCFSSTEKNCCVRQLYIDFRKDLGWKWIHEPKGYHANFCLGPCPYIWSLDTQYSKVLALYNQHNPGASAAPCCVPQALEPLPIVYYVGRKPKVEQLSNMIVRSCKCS
Sequence of chicken LAP-TGFβ1 on HT1080 cells (chicken) (P09531 19-391): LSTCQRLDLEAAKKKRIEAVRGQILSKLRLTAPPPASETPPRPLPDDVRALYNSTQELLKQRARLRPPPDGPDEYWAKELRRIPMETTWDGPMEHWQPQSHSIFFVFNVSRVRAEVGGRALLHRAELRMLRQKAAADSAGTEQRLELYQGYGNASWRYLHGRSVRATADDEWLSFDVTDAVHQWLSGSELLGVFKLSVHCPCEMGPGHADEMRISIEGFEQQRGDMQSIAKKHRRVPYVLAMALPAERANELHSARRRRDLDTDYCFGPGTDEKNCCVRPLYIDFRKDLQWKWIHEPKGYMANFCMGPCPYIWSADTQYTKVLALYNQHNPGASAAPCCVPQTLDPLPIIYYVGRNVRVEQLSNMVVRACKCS
Sequence of human-chicken LAP-TGFβ1 chimera #2.2 on HT1080 cells (human/chicken chimera) (P01137 other isoform, or with tags, fused parts or gaps mutant): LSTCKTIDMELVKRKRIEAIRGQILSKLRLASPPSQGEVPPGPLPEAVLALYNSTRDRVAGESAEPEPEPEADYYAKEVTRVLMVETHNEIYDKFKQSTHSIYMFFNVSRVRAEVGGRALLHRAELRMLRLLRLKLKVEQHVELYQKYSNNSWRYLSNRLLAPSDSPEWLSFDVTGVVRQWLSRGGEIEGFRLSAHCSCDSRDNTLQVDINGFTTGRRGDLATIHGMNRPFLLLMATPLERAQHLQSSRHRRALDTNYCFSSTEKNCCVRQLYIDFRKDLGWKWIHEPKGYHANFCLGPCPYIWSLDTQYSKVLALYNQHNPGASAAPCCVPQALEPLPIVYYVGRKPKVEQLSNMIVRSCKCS

Substance	% GFP+/APC+ cells [1] [%]	% GFP+/APC+ cells [2] [%]	% GFP+/APC+ cells [3] [%]	% GFP+/APC+ cells [4] [%]	% GFP+/APC+ cells [5] [%]	% GFP+/APC+ cells [6] [%]	% GFP+/APC+ cells [7] [%]	% GFP+/APC+ cells [8] [%]	% GFP+/APC+ cells [9] [%]	% GFP+/APC+ cells [10] [%]	% GFP+/APC+ cells [11] [%]	% GFP+/APC+ cells [12] [%]	% GFP+/APC+ cells [13] [%]	% of cells in Q1 (antibody axis positive, GARP negative) [14] [%]	% of cells in Q2 (antibody axis positive, GARP positive) [14] [%]
rabbit monoclonal antibody raised against a peptide from the mature cytokine domain (Abcam ab179695)	11.9	79.1	46.3	0.6	7.5	0.5	65.2	76.7	56.2	47.2	1.5	68.9	78.3	–	–
Isotype Control (antibody)	–	–	–	–	–	–	–	–	–	–	–	–	–	16.2	0.37
